53 sequences from the supplement of paper PMC12764529 can be followed below.

The data set in a line: folding stability dG unfold (combined trypsin and chymotrypsin); higher = more stable. As to the method:
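Folding stability of de novo designed mini-proteins (<80 aa, no Cys; designed by TrROS, TrMRF, ProteinMPNN and the joint model) was measured by cDNA display proteolysis with trypsin and chymotrypsin. Each protease was used at 11 concentrations in a threefold dilution series plus a no-protease condition. K50 was inferred by Bayesian fitting of sequencing counts, and dG unfold was derived against a sequence-predicted unfolded-state K50 (Tsuboyama et al. method). Sequences shown include variable-length N-terminal GS-type padding (SAGGSAGG...) inside a display construct carrying a PA tag. Rows were kept only if the AF2 dimer inter-PAE was >15, to exclude likely homo-oligomers.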
For the sequence “SAGGSAGGSAPKLKFETEPYPNGGYYHKVKIDLEGPKIPITIPVNNNQPMPIEDFAKHILKKSAGGSAGGSA [r18_111_TrROS]”, the “folding stability dG unfold” value is less than -1 kcal/mol.
Take “SAGGSAGGSAPMRMIPFRLPAPPGETIEIKFPNGKKHNISVEPHPDGWFHIMVNGGMIWIPASAGGSAGGSA [r18_372_TrROS]”: the “folding stability dG unfold” value is less than -1 kcal/mol.
For “SAGGSAGGSAPQRFNIVLEVKEPETGKTKVVKRTLSSEEEALKKIPEGLEVKKITVLPPDVPLSAGGSAGGS [r12_208_JUSTAS]”, the “folding stability dG unfold” value was less than -1 kcal/mol.
Take “SAGGSAGGSARDALKNIKHVEIEHNPPNNRGTIRIQPPNGKQIKFEFDSPNELLKKAGIEPSAGGSAGGSAG [r3_36_TrROS]”: the “folding stability dG unfold” value is less than -1 kcal/mol.
The figure for “SAGGSAGGSASEIDELLAAGYTVLVKPPDGSEKVIKPGDTASNLDETFNLSPDAEFVIEPKSAGGSAGGSAG [r3_216_JUSTAS]” is less than -1 kcal/mol.
The figure for “SAGGSAGGSASMKIAKEVRTDPNSDVTYRVEVYRLPGPNVLLVETTYPEGVELSLVEVDPPSAGGSAGGSAG [r3_123_JUSTAS]” is less than -1 kcal/mol; for “SAGGSAGGSATPTPGDDYVYLTEESPDGRTIRYPETGSTIYIPADVPVNLKVNPVRGPDGVPESAGGSAGGS [r20_105_JUSTAS]” it is less than -1 kcal/mol.
As for “SAGGSAGGSAVLRSALDRPVPVLLLTVPRDEVPEEEIRSLLPPELAEQFLKTAPKDSVIVASAGGSAGGSAG [r3_326_TrMRF]”, the “folding stability dG unfold” value is less than -1 kcal/mol.
The figure for “SAGGSAGGSAYKLKDITMRRMPNGYHEVEIKVDNGKKIDVTIPPDNPGRSIEEFAKEVLDNSAGGSAGGSAG [r3_368_TrROS]” is less than -1 kcal/mol.
For “SAGGSAGGSFEVEPTPDHVSIRYYNPDGNPPVSATVDPPEGDIDFEHPDKKQEFPLKPGDTLISAGGSAGGS [r12_536_TrROS]”, the “folding stability dG unfold” value is less than -1 kcal/mol.
As for “SAGGSAGGSGKKYMIDSPEAMNDMRDAGIPPKKIEPEPYPIPANDNPGFKDMPWPMTMYRVKVSAGGSAGGS [r12_78_TrROS]”, the “folding stability dG unfold” value is less than -1 kcal/mol.
For the sequence “SAGGSAGGSGSMNISPNVKKFTIKSTGTEEKAKEEAEKIKNSLPKNVPIEITFEPLDPKEFKKSAGGSAGGS [r12_744_JUSTAS]”, the “folding stability dG unfold” value is less than -1 kcal/mol.
Turning to “SAGGSAGGSKLPDGPYKIRMPHNGRPYEMPIRVTSDGMIEVRMPGEGKKRTFPLNQAEIEPLDSAGGSAGGS [r12_782_TrROS]”, the “folding stability dG unfold” value was less than -1 kcal/mol.
On to “SAGGSAGGSKMTVRIDEVHTHKHDGRRYLSVPLRFPDNGKPIDFHIPPDDLKNLKPGEEITIESAGGSAGGS [r12_382_TrROS]”, for which the “folding stability dG unfold” value is less than -1 kcal/mol.
On to “SAGGSAGGSMPVTRPVATLPGPVTLYETTSPGERRLVRVTETPLPTPEPRTEVRLTVEVRPVGSAGGSAGGS [r12_353_JUSTAS]”, for which the “folding stability dG unfold” value was less than -1 kcal/mol.
With “SAGGSAGGSMVVTTTEFDLNGVKATLSIDDTGSATAKIPDPSYKEDVLKLIPSSFSLTSFDAESAGGSAGGS [r12_9_JUSTAS]”, the “folding stability dG unfold” value is less than -1 kcal/mol.
As for “SAGGSAGGSNPDNNFPPRPKEPIKFPGEGMKIWVYKNHGHIFMEPPPGERQMGTIDPEDGKIVSAGGSAGGS [r12_420_TrROS]”, the “folding stability dG unfold” value is less than -1 kcal/mol.
In the case of “SAGGSAGGSPGNIPINIKIEPYDPDGGEKRKRTIPFPFQDPEGARRHLNKIADEFPPGWRVEISAGGSAGGS [r20_211_TrROS]”, the “folding stability dG unfold” value was less than -1 kcal/mol.
Consider “SAGGSAGGSQKITIEWHKPGAWRIRIPGNGRERHLPMDKPLEEIANTAEKKFPNIPVEIERVKSAGGSAGGS [r12_423_TrROS]”, for which the “folding stability dG unfold” value is less than -1 kcal/mol.
For the sequence “SAGGSAGGSRTFRSPSGVRYTETSSVLETSPDPENGLWSTVTSSVVSVDPGPPAPPPPLSPALVSAGGSAGG [r6_939_JUSTAS]”, the “folding stability dG unfold” value is less than -1 kcal/mol.
The figure for “SAGGSAGGSSEKEEKIRNIIKENFPENVIKKVEFNNDIVKIYGIPEYVKKAKEKLGSKNFIENSAGGSAGGS [r12_748_TrMRF]” is less than -1 kcal/mol; for “SAGGSAGGSSQEIQKRIQDRLRPRGPNRKPTPLEFTPKNGTITIKWKNPWHRKALKELPGIEPSAGGSAGGS [r12_623_TrROS]” it is less than -1 kcal/mol.
Turning to “SAGGSAGGSTVPQSLPDSTATISSGPGGTWTVTFYPDEGSRTLTLPRSVVDASPVPLTELVSSSAGGSAGGS [r20_90_JUSTAS]”, the “folding stability dG unfold” value was less than -1 kcal/mol.
Consider “SAGGSAGGSVIEKDPDDTILLKLEIPEEGKESLVTLPKDEVEKVIEEKGVKKLTALKLGEPKPSAGGSAGGS [r12_294_JUSTAS]”, for which the “folding stability dG unfold” value was less than -1 kcal/mol.
On to “SAGGSAMKDFADAPGITDIHPYPDGTISIHFKSSPNARDKIVEALRKEGNIDIKTHPDHGMIRIKVSAGGSA [r15_554_TrROS]”, for which the “folding stability dG unfold” value was less than -1 kcal/mol.
For the sequence “SAGGSAPPKIDIDVEPNPEEGYYRVTVEFPDGWPLKIPYPYPDPEDNKRNAKKHVKWILKKHEELLSAGGSA [r15_477_TrROS]”, the “folding stability dG unfold” value was less than -1 kcal/mol.
Regarding “SAGGSARWMEYQIPFKSPQKREKLKEALMEHPGISEVDWPPNGTINITIPRDNPNRIKKAAKKAGFSAGGSA [r15_834_TrROS]”, the “folding stability dG unfold” value was less than -1 kcal/mol.
For the sequence “SAGGSASSIPPGKILSKKEFEVELPDGKKLKITILEVPGPTLALTEEPGEKKPKTYKVEELKKLLESAGGSA [r15_329_JUSTAS]”, the “folding stability dG unfold” value was less than -1 kcal/mol.
Turning to “SAGGSATITLKPGEKVEITVTITVTEYKYDKNGKLVEKKTYKITVKATFTVDEDGNIHVEIKIEIESAGGSA [r2_154_TrROS_Hall]”, the “folding stability dG unfold” value was more than 6 kcal/mol.
Turning to “SAGGSEEEKAAKEAAEKELPPAEPKPVLTPDGVVTTYYPVTGAVEVTRYERDAAGVPVKVSSTTDPKSAGGS [r16_243_JUSTAS]”, the “folding stability dG unfold” value was less than -1 kcal/mol.
Take “SAGGSGMAEAEALAAELAAATEKTPLGRTATVSVDTEVRPETGLTLLTVTTTGPGAPTTTPTTLPGRSAGGS [r16_812_JUSTAS]”: the “folding stability dG unfold” value is less than -1 kcal/mol.
Take “SAGGSGMNITVEPVLSPDGTLTVTTTDPATGKTVSTTTTPVPRGPLPPPVRPLLGLDDRNGRPLLLSAGGSA [r2_78_JUSTAS]”: the “folding stability dG unfold” value was less than -1 kcal/mol.
For the sequence “SAGGSLEEIADELAQKPGFDEVKIDVWKPPNGNFMLSVHNKENNRELQIPLPPNWKPVGTYELPVKSAGGSA [r2_74_TrROS]”, the “folding stability dG unfold” value was less than -1 kcal/mol.
Regarding “SAGGSMITKETFPGSEVLTYPEKGIRVELDDKNVTVYDIKPLPGKGEPVVLSSKTISKEELEKLIKSSAGGS [r8_174_JUSTAS]”, the “folding stability dG unfold” value was less than -1 kcal/mol.
On to “SAGGSMTPAELANEIAEKLHEELPPDKSVTITMRFGSGPVTLTIPPDARVDVPEDRPLEVDEISIGSAGGSA [r2_391_JUSTAS]”, for which the “folding stability dG unfold” value was less than -1 kcal/mol.
As for “SAGGSMTVKEFTDPEEVEKAVEEMDSNEVAVMPVPERPVERVFTKINDKVIRETINGETVTTEELLSAGGSA [r2_280_JUSTAS]”, the “folding stability dG unfold” value was less than -1 kcal/mol.
Regarding “SAGGSPVLVPLEREETDPARGTRTRTRAYRLPERDIALVEREEIPFAPDGTPLRRTSEEVVSLEELLESAGG [r13_807_JUSTAS]”, the “folding stability dG unfold” value is less than -1 kcal/mol.
For the sequence “SAGGSWIEKLPPDYTILLEKPDGTPFTRKIPANASEEEVLALNPPGSSKIELVSLDPSGRAVWRTPGSAGGS [r16_103_JUSTAS]”, the “folding stability dG unfold” value is less than -1 kcal/mol.
As for “SAGGTIKEIFEKNGAEIETNPGQGVVTVEMRKPKRDDNGMPKPKPKGKHEIKVPGGDPEQALDNLLKHSAGG [r13_924_TrROS]”, the “folding stability dG unfold” value was less than -1 kcal/mol.
The figure for “SAGGVDLSTLPSNSTVTLTEEKVIPVTKGSPKGSGKGYIETTTTTYTAVPPTGTWLSTTTPSISIIESAGGS [r8_486_JUSTAS]” is less than -1 kcal/mol; for “SAGGVSIEKDVTSSDELLAALPPDRPVRIEYTPPDGSSRELEVDPADLSLDIPAGVKYKVRIEVLPPESAGG [r13_461_JUSTAS]” it is less than -1 kcal/mol; for “SAGLYLVKNKETKEIVTVPAENLSDEQLKAGFEVVKLPPVKINITVESAEEAEALAKLFPDKVEVTVNESAG [r14_638_TrROS_Hall]” it is less than -1 kcal/mol.
In the case of “SAGMFYVLKTKRPTPSAPPEVLAADPNAEVETEYKLSPDTSEEEIKKIKEELKNKGWKEVKLVPISELKSAG [r5_60_JUSTAS]”, the “folding stability dG unfold” value is less than -1 kcal/mol.
Consider “SAGMSTSSPTAKSTVLETSEEGNTVTKKVKVTTPSKDSSGNSSTTTTTTTITTELKGKPEPKTPEYYAKSAG [r5_70_JUSTAS]”, for which the “folding stability dG unfold” value was less than -1 kcal/mol.
“SAGMTINNTGSVEELKKLPDVVEIEKEGNKYTIKMPGETVEVELNPPKPVPKGPPYTSESEKKKKSEKSSAG [r5_2_JUSTAS]”: the “folding stability dG unfold” value is less than -1 kcal/mol.
The figure for “SAGMVKEVKSEEEAKKLPPGTLVKLTKPDPTSNKDVTYYRTYPDGSGGILAKSDSSGKVDLTPEIKKILSAG [r5_490_JUSTAS]” is less than -1 kcal/mol.
As to “SAGMVLAPSTTETRLPGLRVRTETVVTTELAPDGRPTDVVAPTTTVTVTPPAPPPVFTEESVAAAFELESAG [r14_442_JUSTAS]”, the “folding stability dG unfold” value was less than -1 kcal/mol.
Consider “SAGPKINLYRLPNGFLAAKSRSTRPDGKELGTWEKTYLVPGSGKPRTLELPIYDNEKGYVIYAYEEDYSAGG [r19_185_TrMRF]”, for which the “folding stability dG unfold” value is less than -1 kcal/mol.
“SAGPPEPITWKIRNPKNGKKRKIQIWQPDEQMAVQIRDPNDGKPRREIPMPLEEARDLLKSDGFEVEPVSAG [r5_291_TrROS]”: the “folding stability dG unfold” value was less than -1 kcal/mol.
As for “SAGSELLEKFPNVKVEEYEEEIEFSPEKKEEKEEVDETDGNTITYKKIEVLPEGKAKVKIYTAKLPEVSAGG [r19_125_JUSTAS]”, the “folding stability dG unfold” value is less than -1 kcal/mol.
The figure for “SAMEISIDPIEDGPVRVTETYKFPGYTRITVKEIPKELLEKGVPLSELPNVPVLEEEIVEIPPPSPELKSAG [r14_856_JUSTAS]” is less than -1 kcal/mol; for “SAMKPGTVVKVTIIPTEEKLIYNVPEKTVLKSSRTVDATVTKVSTPGSKVTLEIDLPDLPPGSEIELGLSAG [r14_412_JUSTAS]” it is less than -1 kcal/mol; for “SAMTIPVLVEGDIEKLEEREEEIKREVAEELGLPEDLKDLKVEVLEIEPLPDEDGKPTKVRMLVEVHLRSAG [r14_736_TrMRF]” it is less than -1 kcal/mol.
